The source of these data is patent US20210145921A1, “COMPOSITION COMPRISING VEGF ANTAGONISTS AND A CATIONIC PEPTIDE AND USES THEREOF” (UCL BUSINESS LTD, priority 2017, published 2021).

In data set [1] the test system is HCE-S corneal epithelial barrier. The data set is described as follows: in vitro HCE-S transwell transcytosis assay (Papp). The following applies: for enhancement of delivery of Lucentis across the HCE-S barrier: Papp. The data set is classed as in vitro ADME, human. How it is done: HCE-S barrier models for transcytosis assays were prepared using an adaptation of a previously described method.^[1] HCE-S cells (5×10^4 cells/well) were seeded on transwell inserts (poly-carbonate, 3 μm pore size, 1.13 cm^2) and maintained for 7 days refreshing the medium in the apical and basal chambers every second day. After this time cells were cultured for a further 10 days at an apical air interface to encourage development of a multilayer barrier. Prior to each experiment culture medium was replaced with phenol red free DMEM and barrier integrity measured via transepithelial resistance (TER). TER values were obtained in the range 300-600 Ωcm^2 and only epithelial barriers with TERs>300 Ω·cm^2, the accepted threshold for tight epithelial barriers, were used for transcytosis experiments.
Permeation studies were conducted to determine the rate of anti-VEGF transcytosis in the presence/absence of varying concentrations of R8. Experiments were initiated by adding 1.5 ml serum- and phenol red-free DMEM to the basal chamber and 0.5 ml to the apical chamber containing 0.1 mg/mL Avastin or Lucentis in the presence of varying molar ratios of R8. After 3 h, 100 μl of medium was withdrawn from the basal chamber and the concentration of anti-VEGF in the basal chamber was determined using established and commercially available sandwich ELISA techniques (KPL Protein Detector HRP Microwell Kit, Anti-Human Cat #54-62-10 with Jackson Immuno Research AffiniPure Rabbit Anti-Human IgG capture antibody).^[1] […] The permeability coefficient (Papp) of each anti-VEGF was determined as previously described^[1] using equation 1;
where CR is the final concentration of anti-VEGF recovered from the ELISA assay, CD is the initial concentration of anti-VEGFs added to the assay, tmin is the transcytosis time (180 min), VR is the volume of the receiving chamber (1.5 ml) and A represents the filter area (1.12 cm^2).
Lucentis (+/−Steryl-R8) were applied to the Apical chamber and the concentration crossing the barrier was determined from the basolateral chamber at different timepoints using a Lucentis sandwich ELISA. Intact HCE-S barrier was confirmed by measuring transepithelial resistance (>[…]) before each assay.

For the next data set, the system named is HCE-S cells. The data set can be described thus: AlamarBlue cell viability assay. It counts as cell-based, human. The following applies: 24 h exposure, up to 200/1 molar ratio. The procedure:
HCE-S monolayers for uptake assays were prepared by seeding 96 well plates with 1×10^4 cells/well and maintaining for 5 days replacing the medium every other day. After this time, medium was replaced with that containing 100 μM calcein loaded PLVs in the presence or absence of 200 nM AnxA5. Cells were incubated with PLVs at 37° C. for 3 h protected from light. Epithelial monolayers were then washed three times in ice cold PBS (with calcium and magnesium) to remove free PLVs, followed by a single wash in ice cold isosmotic citrate buffer (pH 3) to remove surface bound PLVs before applying a PBS wash containing 1% Triton X-100 to solubilise membranes. Upon completion of each washing step, calcein fluorescence was measured using a 485 nm excitation and 515 nm emission with a SAFIRE micro plate reader (TECAN) HCE-S monolayers for viability assays were prepared by seeding 96 well plates with 1×10^4 cells/well and maintaining for 24 h at 37° C. in a humidified incubator with 5% CO2. […] Cells were incubated with anti-VEGF/R8 solutions for 24 h before viability of HCE-S cells in response to was assessed using the AlamarBlue (Invitrogen) cell viability assay according to manufacturers instructions. […]
A general note: The colour change of resazurin is a common sign of viable cells or microbes.

Data set [2] is described as follows: dextran transcytosis assay. It counts as in vitro ADME. From the text:
The fifth experiment conducted was whether R8 affected the transport of dextrans across a membrane, FIG. 27. Dextrans are complex branched polysaccharides made of many glucose molecules. They can be composed of chains of varying lengths.

The nature of data set [3]: in vivo rabbit study, topical instillation, anti-VEGF in eye tissue by sandwich ELISA. Also on record: species or system New Zealand rabbits. The procedure:
All animal experiments were performed in compliance with the ARVO Statement for the Use of Animals in Ophthalmic and Vision Research. New Zealand rabbits received unilateral topical instillations of 0.03 mL anti-VEGF in the presence of R8 (varying molar concentrations) either as a liquid or hydrogel formulations without anaesthesia. At the specified time after application animals were euthanized before enucleation, washing (PBS) and snap-freezing and dissection of ocular tissues. Samples were weighed and cryohomogenised before the concentration of anti-VEGF per gram of eye tissue determined using established sandwich ELISA protocols.
On the technique in general: In an ELISA, binding on a coated surface is turned into a signal by an enzyme label.

The subject of data set [4] is human umbilical vein endothelial cell (HUVEC). The note with it: cited from earlier work.
The next data set concerns rhVEGF165. The following applies: read-out: IC50, tissue factor up-regulation; cited from earlier work.
For data set [5] the following is noted: human, in vivo; cited from earlier work.
For data set [6] the following is noted: in vivo; cited from earlier work.

A value given as a limit tells only on which side of the number the result lay.

`N=C(N)NCCC[C@H](NC(=O)[C@H](CCCNC(=N)N)NC(=O)[C@H](CCCNC(=N)N)NC(=O)[C@H](CCCNC(=N)N)NC(=O)[C@H](CCCNC(=N)N)NC(=O)[C@H](CCCNC(=N)N)NC(=O)[C@H](CCCNC(=N)N)NC(=O)[C@@H](N)CCCNC(=N)N)C(=O)O` [R8, RRRRRRRR]: in data set [1], the “transcytosis of Lucentis, peptide alone without liposomes” value is given as “dramatic enhancement in transcytosis” and the “enhancement of delivery of Lucentis across the HCE-S barrier” value is “concentration dependent manner”. Moreover, the “toxicity to HCE-S cells” value with HCE-S cells is “non-toxic”. The “effect on transport of different sizes of dextran across a membrane” value in data set [2] is recorded as “made no difference”.

As to Bevacizumab [Avastin], in data set [1], the “transport across the HCE-S barrier in the presence of R8 (ST-R8)” value is on record as “aided the transport”.

As to Ranibizumab [Lucentis], the “transport across the HCE-S barrier in the presence of R8 (ST-R8)” value in data set [1] is reported as “aided the transport”. Besides, the “free Lucentis detected in retina” value in data set [3] (2 h after topical instillation) is reported as ~20 ng. In addition, the “concentration detected in plasma” value in data set [3] (free Lucentis, topical instillation, 2 h) was < 0.1 ng/mL. Also, the “proportion of dosed free Lucentis reaching the retina by the topical route” value in data set [3] (from dosed eye versus co-eye concentration, n=10) was ~30%. The “Lucentis delivery to the retina” value in data set [3] (liquid formulation, 2 h, n=3) is 18 ± 8 ng/g. For the same compound, the “levels of Lucentis in the vitreous and retina/choroid” value in data set [3] (rabbit, one eye dosed, 2 hours after topical application) is 10 ng/g tissue. Besides, the “concentration giving total inhibition of proliferation” value in data set [4] was ≥ 1.3 nM. For the same compound, the IC50 in data set [4] (read-out: IC50, VEGF-induced proliferation) was < 1 nM; in the data set with rhVEGF165 it was 0.31 nM. For the same compound, in data set [5], the “clinical Cmax predicted at steady state” value was 1.7 ng/mL. In addition, the “clinical Cmax, maximal individual level” value in data set [5] is recorded as 2.4 ng/mL. In data set [6], the “half-life in the eye” value is listed as 7.19 days.

`CCCCCCCCCCCCCCCCCC(=O)N[C@@H](CCCNC(=N)N)C(=O)N[C@@H](CCCNC(=N)N)C(=O)N[C@@H](CCCNC(=N)N)C(=O)N[C@@H](CCCNC(=N)N)C(=O)N[C@@H](CCCNC(=N)N)C(=O)N[C@@H](CCCNC(=N)N)C(=O)N[C@@H](CCCNC(=N)N)C(=O)N[C@@H](CCCNC(=N)N)C(=O)O` [ST-R8, Stearyl-R8]: in data set [1], the “transcytosis of anti-VEGF (Lucentis) loaded liposomes” value is reported as “significantly enhanced” and the “enhancement of delivery of Lucentis across the HCE-S barrier” value was “concentration dependent manner”.
